Results from patent publication US20030167129A1 (published 2003).
Where no end group is shown, it is not given here. [ ]: non-standard residue; d: D form. 1Nal = N[C@@H](Cc1cccc2ccccc12)C(=O)O; 2Nal = N[C@@H](Cc1ccc2ccccc2c1)C(=O)O; Tic = O=C(O)[C@@H]1Cc2ccccc2CN1; Aib = CC(C)(N)C(=O)O

B1: CPI-1366 (peptide)
peptide: Ac-ARSLI[2Nal]RAARR[2Nal]RR
notes: also called Ac-ARSLI(2-Nal)RAARR(2-Nal)RR
B2: CPI-1456 (peptide)
peptide: RRARSLI[2Nal]RAARR[2Nal]RR
notes: also called RRARSLI(2-Nal)RAARR(2-Nal)RR
B3: CXCR4-GST (receptor, human, UniProt P61073 1-352, looked up)
chain: MEGISIYTSDNYTEEMGSGDYDSMKEPCFREENANFNKIFLPTIYSIIFLTGIVGNGLVILVMGYQKKLRSMTDKYRLHLSVADLLFVITLPFWAVDAVANWYFGNFLCKAVHVIYTVNLYSSVLILAFISLDRYLAIVHATNSQRPRKLLAEKVVYVGVWIPALLLTIPDFIFANVSEADDRYICDRFYPNDLWVVVFQFQHIMVGLILPGIVILSCYCIIISKLSHSKGHQKRKALKTTVILILAFFACWLPYYIGISIDSFILLEIIKQGCEFENTVHKWISITEALAFFHCCLNPILYAFLGAKFKTSAQHALTSVSRGSSLKILSKGKRGGHSSVSTESESSSFHSS
notes: whole, on cells; Full-length receptor expressed by baculovirus in High Five or Sf9 insect cells; assayed as membrane preparations or solubilized and immobilized on glutathione resin; also called GST-CXCR4 (High Five); CXCR4 with C-terminal GST tag; not shown: C-terminal GST tag
B4: CPI-1500 (peptide)
peptide: ARSLI[2Nal]R[Tic]ARR[2Nal]RR-NH2
modifications: N-terminus assumed
SMILES: CC[C@H](C)[C@H](NC(=O)[C@H](CC(C)C)NC(=O)[C@H](CO)NC(=O)[C@H](CCCNC(=N)N)NC(=O)[C@H](C)N)C(=O)N[C@@H](Cc1ccc2ccccc2c1)C(=O)N[C@@H](CCCNC(=N)N)C(=O)N1Cc2ccccc2C[C@H]1C(=O)N[C@@H](C)C(=O)N[C@@H](CCCNC(=N)N)C(=O)N[C@@H](CCCNC(=N)N)C(=O)N[C@@H](Cc1ccc2ccccc2c1)C(=O)N[C@@H](CCCNC(=N)N)C(=O)N[C@@H](CCCNC(=N)N)C(N)=O
B5: CPI-1221 (peptide)
peptide: MARSLIWRPAKAKKK
notes: Original 15-mer consensus peptide; also called M-A-R-S-L-I-W-R-P-A-K-A-K-K-K

The binders below were run against T1, CXCR4 (CXC chemokine receptor 4), tagged construct not stated (human, UniProt P61073 1-352) (assay: inhibition of [125I]-SDF1α binding to CXCR4).
T1 construct: whole, on cells; Receptor of the radioligand displacement assays of the peptides; in insect cell membranes; also called the receptor; CXCR4-containing membranes
MARSAIWRPAKAKKK [CPI-1307]: binds.
MARSLIWGPAKAKKK [CPI-1334]: binds.
MARSLIARPAKAKKK [CPI-1304]: binds.
MARSLAWRPAKAKKK [CPI-1308]: binds.
MARSLIWRAAKAKKK [CPI-1295]: binds.
MARSLIWRPAKAAKK [CPI-1301]: binds.
MARSLIWAPAKAKKK [CPI-1305]: binds.
MARSLIWRPAKAKAK [CPI-1310]: binds.
MARALIWRPAKAKKK [CPI-1328]: binds.
MAASLIWRPAKAKKK [CPI-1329]: binds.
MARSLIWRPAKAKKA [CPI-1312]: binds.
MAASLIWRPAKAKKK [SEQ ID NO 12 (Table 1 row without a CPI number)]: binds.
MARSFIWRPAKAKKK [CPI-1296]: binds.
MARSTIWRPAKAKKK [CPI-1298]: binds.
MARSLIWRPAAAKKK [CPI-1306]: binds.
FHEFRSLIWRPAKAKKK [CPI-1300]: binds.
YHEFRSLIWRPAKAKKK [CPI-1299]: binds.
ARSLIWRLARRWRR [CPI-1425]: binds.
MARSLI[1Nal]RPAKAKKK [CPI-1291]: binds.
MARSLIWRPAKKK [CPI-1249]: binds.
MARSLIWRPARRRRR [CPI-1332]: binds.
MARSLIWRP[Aib]KAKKK [CPI-1303]: binds.
ARSLIWRPAKAKKK [CPI-1292]: binds.
FARSLIERAARRWRR [CPI-1330]: binds.
ARSLIWRPARRRRR [CPI-1297]: binds.
MARSLI[2Nal]RPAKAKKK [CPI-1309]: binds.
FARSLI[2Nal]EAARR[2Nal]RR (also called FARSLI(2-Nal)EAARR(2-Nal)RR) [CPI-1389]: binds.
FARSLI[2Nal]AARR[2Nal]RR [CPI-1390]: binds.
MARSLIWRPAREWRR [CPI-1377]: binds.
B1: binds.
ARSLI[2Nal]RPARR[2Nal]RR (also called ARSLI(2-Nal)RPARR(2-Nal)RR) [CPI-1701]: binds.
ARSLI[2Nal]RHARR[2Nal]RR (also called ARSLI(2-Nal)RHARR(2-Nal)RR) [CPI-1443]: binds.
RSLIWRPAK [CPI-1250]: binds.
MARSLIWRPAKARRR [CPI-1289]: binds.
MARSLIWRPAERWRR [CPI-1373]: binds.
B2: binds.
RSLIWRPAKAKKK [CPI-1247]: binds.
ISLIWRPAKAKKK [CPI-1248]: binds.
KKKARSLIWRPAKAKKK [CPI-1331]: binds.
ARSLI[2Nal]R[Tic]ARR[2Nal]RR [CPI-1458]: binds.
ARSIWRLARRWRR [CPI-1382]: binds.
MARSLIWR[Tic]AKAKKK [CPI-1302]: binds.
MAESLIWRPARRWRR [CPI-1374]: binds.
MARSLIWEPARRWRR [CPI-1372]: binds.

Each binder was assayed against T2, SDF-1α (UniProt P48061-2 22-89, 125I label on the radioligand form) (assay: radioligand saturation binding, [125I]-SDF-1α on membrane preparations of GST-CXCR4 (High Five)).
T2 construct: Labelled and unlabelled forms are kept as one molecule
T2 sequence (P48061 22-89 limits assumed): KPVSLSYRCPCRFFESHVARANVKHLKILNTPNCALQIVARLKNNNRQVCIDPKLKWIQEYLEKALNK
Experimental: Whole cells from Sf9 and High five cell lines were lysed using hypotonic buffers (10 mM Tris, pH 7.4, 5 mM EDTA), and membrane preparations were made by homogenization and centrifugation using standard techniques known to those skilled in the art. […] For filtration and washing, the reaction was transferred to Millipore Multiscreen filter plates (HATF 0.45 μm; pre-blocked with 10% BSA) (Bedford, Mass.), filtered using vacuum, washed 4-5 times with 200 μL ice-cold buffer, and radioactive counts bound were detected using scintillation counting. All points were done in triplicate. Uninfected cells were used as a control for this experiment. […] Analyses of KD and IC₅₀ were performed using non-linear curve fitting in Kaleidagraph (software program sold by Synergy Software, Reading, Pa.).
For B3, the Kd was 3.27 nM.

Each binder was assayed against CXCR4 as HIV co-receptor in the HIV infectivity assay (HELA / Magi cells) (UniProt P61073 1-352, limits assumed) (assay: cell-based or functional assay).
In the case of B4, the “inhibition of HIV IIIb infection, EC50” value is reported as 280 nM.

The binders below were run against T1, CXCR4 (CXC chemokine receptor 4), … (assay: binding inhibition curves, [125I]-SDF1α displacement).
ARSLI[2Nal]RAARR[2Nal]RR (also called ARSLI(2-Nal)RAARR(2-Nal)RR) [CPI-1365]: binds.

These binders were tested against T1, CXCR4 (CXC chemokine receptor 4), … (assay: radioligand displacement of [125I]-SDF-1 from CXCR4).
For B5, the IC50 was roughly 60000 nM.
